Measurements: US20050064507

Legend:
[1] = target: T1, CLK2 peptide RRRRSRTFSRS (SEQ ID NO:178) (not fully specified)
T1 chain: RRRRSRTFSRS

[2] = target: T2, CLK3 peptide RWKRRRSYSREH (SEQ ID NO:196) (not fully specified)
T2 chain: RWKRRRSYSREH

[3] = target: T3, GPR105 peptide KSSRNSTSVKKK (SEQ ID NO:206) (not fully specified)
T3 chain: KSSRNSTSVKKK

[4] = target: T4, MAST3 peptide TQDRRKSLFKKI (SEQ ID NO:201) (not fully specified)
T4 chain: TQDRRKSLFKKI

[5] = target: T5, NPAT peptide FRASSRSTTK (SEQ ID NO:184) (not fully specified)
T5 chain: FRASSRSTTK

[6] = target: T6, S1P1 receptor peptide RTRSRRLTFRK (SEQ ID NO:169) (not fully specified)
T6 chain: RTRSRRLTFRK

[7] = target: T7, SHP-1 peptide DKEKSKGSLKRK (SEQ ID NO:209) (not fully specified)
T7 chain: DKEKSKGSLKRK

[8] = target: T8, WNK1 peptide RRRRPTKSKGSK (SEQ ID NO:198) (not fully specified)
T8 chain: RRRRPTKSKGSK

[9] = target: T9, nucleolar phosphoprotein p130 peptide TKKKRGSYRGGS (SEQ ID NO:182) (not fully specified)
T9 chain: TKKKRGSYRGGS

[10] = target: T10, serine/threonine-protein kinase PRP4 peptide GRRRRSRSKVK (SEQ ID NO:189) (not fully specified)
T10 chain: GRRRRSRSKVK

[11] = target: T11, serine/threonine-protein kinase PRP4 peptide TKKRSKSRSKER (SEQ ID NO:215) (not fully specified)
T11 chain: TKKRSKSRSKER

B1: PKC-theta (protein)
chain: MSPFLRIGLSNFDCGSCQSCQGEAVNPYCAVLVKEYVESENGQMYIQKKPTMYPPWDSTFDAHINKGRVMQIIVKGKNVDLISETTVELYSLAERCRKNNGKTEIWLELKPQGRMLMNARYFLEMSDTKDMNEFETEGFFALHQRRGAIKQAKVHHVKCHEFTATFFPQPTFCSVCHEFVWGLNKQGYQCRQCNAAIHKKCIDKVIAKCTGSAINSRETMFHKERFKIDMPHRFKVYNYKSPTFCEHCGTLLWGLARQGLKCDACGMNVHHRCQTKVANLCGINQKLMAEALAMIESTQQARCLRDTEQIFREGPVEIGLPCSIKNEARPPCLPTPGKREPQGISWESPLDEVDKMCHLPEPELNKERPSLQIKLKIEDFILHKMLGKGSFGKVFLAEFKKTNQFFAIKALKKDVVLMDDDVECTMVEKRVLSLAWEHPFLTHMFCTFQTKENLFFVMEYLNGGDLMYHIQSCHKFDLSRATFYAAEIILGLQFLHSKGIVYRDLKLDNILLDKDGHIKIADFGMCKENMLGDAKTNTFCGTPDYIAPEILLGQKYNHSVDWWSFGVLLYEMLIGQSPFHGQDEEELFHSIRMDNPFYPRWLEKEAKDLLVKLFVREPEKRLGVRGDIRQHPLFREINWEELERKEIDPPFRPKVKSPFDCSNFDKEFLNEKPRLSFADRALINSMDQNMFRNFSFMNPGMERLIS
in vitro phosphorylation (% of best substrate) [1]: 65
in vitro phosphorylation (% of best substrate) [2]: 32
in vitro phosphorylation (% of best substrate) [3]: 19
in vitro phosphorylation (% of best substrate) [4]: 25
in vitro phosphorylation (% of best substrate) [5]: 54
in vitro phosphorylation (% of best substrate) [6]: 100
in vitro phosphorylation (% of best substrate) [7]: 17
in vitro phosphorylation (% of best substrate) [8]: 28
in vitro phosphorylation (% of best substrate) [9]: 61
in vitro phosphorylation (% of best substrate) [10]: 43
in vitro phosphorylation (% of best substrate) [11]: 12
